{"source": "paper PMC3008712", "binders": {"B1": {"name": "recombinant human γD-crystallin, P07320 1-174 (natural protein)", "chain": "MGKITLYEDRGFQGRHYECSSDHPNLQPYLSRCNSARVDSGCWMLYEQPNYSGLQYFLRRGDYADHQQWMGLSDSVRSCRLIPHSGSHRIRLYEREDYRGQMIEFTEDCSCLQDRFRFNEIHSLNVLEGSWVLYELSNYRGRQYLLMPGDYRRYQDWGATNARVGSLRRVIDFS"}}, "key": {"[1]": {"target": "T1, recombinant human γD-crystallin (human), P07320", "T1 chain": "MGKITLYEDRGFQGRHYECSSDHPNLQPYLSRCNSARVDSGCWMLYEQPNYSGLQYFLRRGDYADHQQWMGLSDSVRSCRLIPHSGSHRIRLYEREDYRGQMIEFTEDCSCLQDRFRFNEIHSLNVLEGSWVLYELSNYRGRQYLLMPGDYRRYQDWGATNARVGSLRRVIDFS", "assay": "reducing SDS-PAGE; 1 mg/ml HGDC in 5 mM sodium phosphate pH 7.0, UV-C irradiated (254 nm, 1,850 μW/cm^2) for 10-60 min; 15% gel, sample buffer with β-mercaptoethanol; band intensities by Image-J", "conditions": "remark: other sources report otherwise"}, "[2]": {"target": "T1, recombinant human γD-crystallin …", "assay": "non-reducing SDS-PAGE; 1 mg/ml HGDC in 5 mM sodium phosphate pH 7.0, UV-C irradiated (254 nm, 1,850 μW/cm^2) for 10-60 min; 15% gel, sample buffer without β-mercaptoethanol; band intensities by Image-J", "conditions": "remark: other sources report otherwise"}}}
{"binder": "B1", "values": [{"measurement": "HGDC polymerization (%) with β-ME, 10 min UV-C", "setting": "[1]", "value": 6.66, "unit": "%"}, {"measurement": "HGDC polymerization (%) with β-ME, 20 min UV-C", "setting": "[1]", "value": 15, "unit": "%"}, {"measurement": "HGDC polymerization (%) with β-ME, 30 min UV-C", "setting": "[1]", "value": 25.4, "unit": "%"}, {"measurement": "HGDC polymerization (%) with β-ME, 40 min UV-C", "setting": "[1]", "value": 29.8, "unit": "%"}, {"measurement": "HGDC polymerization (%) with β-ME, 50 min UV-C", "setting": "[1]", "value": 30.1, "unit": "%"}, {"measurement": "HGDC polymerization (%) with β-ME, 60 min UV-C", "setting": "[1]", "value": 31.5, "unit": "%"}, {"measurement": "HGDC polymerization (%) without β-ME, 10 min UV-C", "setting": "[2]", "value": 7.31, "unit": "%"}, {"measurement": "HGDC polymerization (%) without β-ME, 20 min UV-C", "setting": "[2]", "value": 17.6, "unit": "%"}, {"measurement": "HGDC polymerization (%) without β-ME, 30 min UV-C", "setting": "[2]", "value": 30.6, "unit": "%"}, {"measurement": "HGDC polymerization (%) without β-ME, 40 min UV-C", "setting": "[2]", "value": 42, "unit": "%"}, {"measurement": "HGDC polymerization (%) without β-ME, 50 min UV-C", "setting": "[2]", "value": 51.3, "unit": "%"}, {"measurement": "HGDC polymerization (%) without β-ME, 60 min UV-C", "setting": "[2]", "value": 53.6, "unit": "%"}]}
